B1: I133L (protein)
chain: MQLRNPELHLGCALALRFLALVSWDIPGARALDNGLARTPTMGWLHWERFMCNLDCQEEPDSCISEKLFMEMAELMVSEGWKDAGYEYLCIDDCWMAPQRDSEGRLQADPQRFPHGIRQLANYVHSKGLKLGLYADVGNKTCAGFPGSFGYYDIDAQTFADWGVDLLKFDGCYCDSLENLADGYKHMSLALNRTGRSIVYSCEWPLYMWPFQKPNYTEIRQYCNHWRNFADIDDSWKSIKSILDWTSFNQERIVDVAGPGGWNDPDMLVIGNFGLSWNQQVTQMALWAIMAAPLFMSNDLRHISPQAKALLQDKDVIAINQDPLGKQGYQLRQGDNFEVWERPLSGLAWAVAMINRQEIGGPRSYTIAVASLGKGVACNPACFITQLLPVKRKLGFYEWTSRLRSHINPTGTVLLQLENTMQMSLKDLL
B2: N139I (protein)
chain: B1 chain with L133I, N139I
B3: A135G (protein)
chain: B1 chain with L133I, A135G
B4: V137D (protein)
chain: B1 chain with L133I, V137D
B5: I133T (protein)
chain: B1 chain with L133T
B6: V137A (protein)
chain: B1 chain with L133I, V137A
B7: N139H (protein)
chain: B1 chain with L133I, N139H
B8: A135S (protein)
chain: B1 chain with L133I, A135S
B9: G138A (protein)
chain: B1 chain with L133I, G138A
B10: V137L (protein)
chain: B1 chain with L133I, V137L
B11: D136A (protein)
chain: B1 chain with L133I, D136A
B12: A135E (protein)
chain: B1 chain with L133I, A135E
B13: V137G (protein)
chain: B1 chain with L133I, V137G
B14: D136N (protein)
chain: B1 chain with L133I, D136N
B15: V137I (protein)
chain: B1 chain with L133I, V137I
B16: D136V (protein)
chain: B1 chain with L133I, D136V
B17: A135T (protein)
chain: B1 chain with L133I, A135T
B18: I133V (protein)
chain: B1 chain with L133V

Residue numbers refer to the chain shown, from its start. Names and notes keep the numbering of the source.

For the first experiment, the system named is mutant form of α-Gal A expressed in HEK-293 cells. The experiment is described as follows: HEK assay (GLP HEK / Migalastat Amenability Assay): α-Gal A activity in lysates of transiently transfected HEK-293 cells incubated with or without 10 μM migalastat. Format: cell-based, human. The note with it: 10 μM migalastat versus baseline. In a few lines:
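Activity reported as 4-MU released (nmol/mg/hr), mean±SEM, from lysates of transiently transfected HEK-293 cells expressing mutant α-Gal A, cultured with or without 10 μM migalastat.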
On to B1, for which the “Absolute increase (% WT)” value is given as 17.5 % WT.
On the same count and under the same terms, with B2 the figure was 26.4 % WT; with B3, 16.1 % WT.
Still for that read-out and setting: next, B4: 11.6 % WT; B5: 15.0 % WT; B6: 45.4 % WT.
On to B7, for which the “Absolute increase (% WT)” value is reported as 28.1 % WT.
Same read-out and setting: with B8 the figure was 12.2 % WT; with B9, 20.1 % WT; with B10, 11.7 % WT.
Same read-out and setting: next, B11: 9.4 % WT; B12: 7.4 % WT.
On the same count and under the same terms, next, B13: 52.4 % WT; B14: 11.2 % WT.
For the molecule B15, the “Absolute increase (% WT)” value came out at 24.7 % WT.
The same measure, in the same setting: with B16 the figure was 74.2 % WT; with B17, 23.2 % WT; with B18, 21.9 % WT.

Still in this experiment, the particulars now being: 10 μM migalastat α-Gal A activity relative to baseline.
As for B1, the Relative increase was found to be 1.3.
In turn, B2 had a Relative increase of 1.5.
Same read-out and setting: next, B3: 1.2; B4: 9.2.
The molecule B5 registered a Relative increase of 2.4.
Still for that read-out and setting: with B6 the figure was 1.8; with B7, 1.4; with B8, 1.3.
The same measure, in the same setting: with B9 the figure was 2.3.
In turn, B10 yielded a Relative increase of 1.3.
The same measure, in the same setting: next, B11: 1.5; B12: 1.3; B13: 2.2.
Still for that read-out and setting: with B14 the figure was 1.9; with B15, 1.8; with B16, 2.8.
Same read-out and setting: next, B17: 2.4; B18: 1.2.

Staying with this experiment, now noted: 10 μM migalastat, 5 days; percentage of baseline wild-type α-Gal A activity; mean ± SEM.
Consider B1, for which the “10 μM migalastat α-Gal A activity (% WT)” value came out at 78.2 ± 3.1 % WT.
On the same count and under the same terms, with B2 the figure was 78.3 ± 4.5 % WT; with B3, 90 ± 3.6 % WT.
For B4, the “10 μM migalastat α-Gal A activity (% WT)” value is reported as 13 ± 1.6 % WT.
Same read-out and setting: next, B5: 25.8 ± 1.1 % WT; B6: 106.6 ± 5.9 % WT; B7: 101.2 ± 7.1 % WT.
The same measure, in the same setting: with B8 the figure was 57.9 ± 3.2 % WT.
The same measure, in the same setting: with B9 the figure was 34.5 ± 1.5 % WT.
Consider B10, for which the “10 μM migalastat α-Gal A activity (% WT)” value amounted to 53.3 ± 3.7 % WT.
Still for that read-out and setting: with B11 the figure was 29.8 ± 1 % WT; with B12, 32.5 ± 1.6 % WT; with B13, 98.2 ± 5 % WT.
Still for that read-out and setting: with B14 the figure was 24.2 ± 0.9 % WT.
Still for that read-out and setting: with B15 the figure was 57.4 ± 2.5 % WT; with B16, 116.4 ± 5.5 % WT; with B17, 40.5 ± 3.4 % WT.
For the molecule B18, the “10 μM migalastat α-Gal A activity (% WT)” value worked out at 118.1 ± 5.1 % WT.

Staying with this experiment, now noted: absence of migalastat; percentage of baseline wild-type α-Gal A activity; mean ± SEM.
With B1, the “Baseline α-Gal A activity (% WT)” value is listed as 60.7 ± 2.7 % WT.
Same read-out and setting: next, B2: 51.8 ± 5.1 % WT; B3: 73.9 ± 3.8 % WT.
On the same count and under the same terms, next, B4: 1.4 ± 0.2 % WT; B5: 10.8 ± 1 % WT.
The same measure, in the same setting: with B6 the figure was 61.1 ± 4.6 % WT; with B7, 73.1 ± 5.4 % WT.
As for B8, the “Baseline α-Gal A activity (% WT)” value amounted to 45.6 ± 2.9 % WT.
Same read-out and setting: with B9 the figure was 14.4 ± 1.1 % WT; with B10, 41.6 ± 2.1 % WT.
Still for that read-out and setting: with B11 the figure was 20.4 ± 1.1 % WT.
The same measure, in the same setting: next, B12: 25.1 ± 1.5 % WT.
With B13, the “Baseline α-Gal A activity (% WT)” value worked out at 45.9 ± 4.2 % WT.
With B14, the “Baseline α-Gal A activity (% WT)” value is listed as 13 ± 0.8 % WT.
Consider B15, for which the “Baseline α-Gal A activity (% WT)” value was determined as 32.8 ± 1.6 % WT.
Still for that read-out and setting: next, B16: 42.2 ± 1.7 % WT; B17: 17.4 ± 1.3 % WT; B18: 96.2 ± 3.7 % WT.

The same experiment, now with this note: lysates of HEK-293 cells transfected with the mutant form, incubated 5 days in the absence of migalastat; mean ± SEM.
Consider B1, for which the “Baseline α-Gal A activity” value amounted to 24431 ± 1181 nmol/mg/h.
The same measure, in the same setting: next, B2: 17180 ± 1455 nmol/mg/h; B3: 29959 ± 2193 nmol/mg/h; B4: 516 ± 80 nmol/mg/h.
On the same count and under the same terms, with B5 the figure was 4362 ± 397 nmol/mg/h; with B6, 22393 ± 1429 nmol/mg/h; with B7, 29115 ± 2336 nmol/mg/h.
Still for that read-out and setting: next, B8: 16777 ± 897 nmol/mg/h; B9: 4768 ± 480 nmol/mg/h; B10: 15359 ± 656 nmol/mg/h.
For B11, the “Baseline α-Gal A activity” value is 8054 ± 482 nmol/mg/h.
Same read-out and setting: next, B12: 10143 ± 752 nmol/mg/h; B13: 16515 ± 1170 nmol/mg/h; B14: 5079 ± 248 nmol/mg/h.
Still for that read-out and setting: next, B15: 12148 ± 597 nmol/mg/h; B16: 17164 ± 1203 nmol/mg/h.
As to B17, the “Baseline α-Gal A activity” value is 7906 ± 694 nmol/mg/h.
Same read-out and setting: with B18 the figure was 38738 ± 1624 nmol/mg/h.

Still in this experiment, the particulars now being: lysates of HEK-293 cells transfected with the mutant form, incubated 5 days with 10 μM migalastat; mean ± SEM.
As for B1, the “10 μM migalastat α-Gal A activity” value was determined as 31550 ± 1420 nmol/mg/h.
On the same count and under the same terms, with B2 the figure was 26326 ± 1627 nmol/mg/h; with B3, 36552 ± 2309 nmol/mg/h.
Regarding B4, the “10 μM migalastat α-Gal A activity” value is 4757 ± 618 nmol/mg/h.
The same measure, in the same setting: next, B5: 10255 ± 335 nmol/mg/h; B6: 40016 ± 2785 nmol/mg/h; B7: 40678 ± 3158 nmol/mg/h.
For the molecule B8, the “10 μM migalastat α-Gal A activity” value was found to be 21383 ± 1125 nmol/mg/h.
The same measure, in the same setting: next, B9: 11112 ± 732 nmol/mg/h.
On to B10, for which the “10 μM migalastat α-Gal A activity” value came to 19794 ± 1475 nmol/mg/h.
The same measure, in the same setting: next, B11: 12166 ± 927 nmol/mg/h; B12: 12954 ± 678 nmol/mg/h.
On the same count and under the same terms, with B13 the figure was 36258 ± 1701 nmol/mg/h; with B14, 9827 ± 630 nmol/mg/h; with B15, 21313 ± 987 nmol/mg/h.
Still for that read-out and setting: with B16 the figure was 47647 ± 3779 nmol/mg/h.
Take B17: the “10 μM migalastat α-Gal A activity” value amounted to 18890 ± 2092 nmol/mg/h.
Consider B18, for which the “10 μM migalastat α-Gal A activity” value is 47299 ± 1885 nmol/mg/h.

The record behind these values is patent US11833164B2, “Methods of treating Fabry disease in patients having a mutation in the GLA gene” (Amicus Therapeutics, Inc., priority 2019, dated 2023).
